Source: article PMC12578939

Target: microtubules polymerised from bovine brain tubulin (bovine) (UniProt Q6B856)
Experiment: TIRF microscopy of binding to immobilised microtubules

## augmin octamer lacking the N-terminal CH domain of Haus6 (residues 1-160) (from UniProt Q6DCY9;Q0IHJ3) (complex)
  reduction in MT binding against wildtype augmin: 50%
